We go through one molecule from article PMC3413154.

Assay in all cases: EMSA
(A gel shift assay detects complexes by their altered migration in electrophoresis.)

The target of data set [1] is T1, A1 (full length, mature);L2 RNA-editing ligase (full length, mature) (Trypanosoma brucei;Trypanosoma brucei, UniProt Q95W15;P86925 196-762;21-416, |).
T1 sequence 1: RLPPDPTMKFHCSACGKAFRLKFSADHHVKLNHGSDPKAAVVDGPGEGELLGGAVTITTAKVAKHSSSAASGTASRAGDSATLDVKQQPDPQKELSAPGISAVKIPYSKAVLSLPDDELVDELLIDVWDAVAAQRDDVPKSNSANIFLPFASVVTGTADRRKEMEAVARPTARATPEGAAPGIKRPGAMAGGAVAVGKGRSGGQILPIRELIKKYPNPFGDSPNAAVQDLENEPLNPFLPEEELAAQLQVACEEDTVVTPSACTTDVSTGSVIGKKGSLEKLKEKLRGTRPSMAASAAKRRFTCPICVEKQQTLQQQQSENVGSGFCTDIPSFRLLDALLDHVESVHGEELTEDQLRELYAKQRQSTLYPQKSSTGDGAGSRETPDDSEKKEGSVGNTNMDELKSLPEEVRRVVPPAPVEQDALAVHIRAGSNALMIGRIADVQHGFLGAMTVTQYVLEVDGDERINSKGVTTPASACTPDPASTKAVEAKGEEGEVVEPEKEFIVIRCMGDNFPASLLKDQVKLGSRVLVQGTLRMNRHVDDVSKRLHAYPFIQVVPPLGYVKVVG
T1 sequence 2: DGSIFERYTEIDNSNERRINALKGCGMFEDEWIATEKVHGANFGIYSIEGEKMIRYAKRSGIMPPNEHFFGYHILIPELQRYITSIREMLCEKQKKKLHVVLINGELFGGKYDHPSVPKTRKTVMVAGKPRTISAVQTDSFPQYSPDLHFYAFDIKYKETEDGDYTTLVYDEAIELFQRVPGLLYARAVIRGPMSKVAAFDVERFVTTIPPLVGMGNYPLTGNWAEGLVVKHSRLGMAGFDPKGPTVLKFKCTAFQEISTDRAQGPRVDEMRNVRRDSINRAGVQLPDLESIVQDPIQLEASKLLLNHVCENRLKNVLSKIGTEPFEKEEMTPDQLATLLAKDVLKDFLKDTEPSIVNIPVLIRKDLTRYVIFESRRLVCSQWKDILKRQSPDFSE

Data set [2] concerns the target T2, A1 L2BD;L2 RNA-editing ligase (full length, mature) (Trypanosoma brucei;Trypanosoma brucei, UniProt Q95W15;P86925 196-331;21-416, |).
T2 sequence 1: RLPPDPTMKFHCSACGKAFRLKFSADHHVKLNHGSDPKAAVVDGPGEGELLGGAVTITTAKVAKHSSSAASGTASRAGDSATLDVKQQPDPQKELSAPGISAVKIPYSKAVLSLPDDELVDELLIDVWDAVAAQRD
T2 sequence 2: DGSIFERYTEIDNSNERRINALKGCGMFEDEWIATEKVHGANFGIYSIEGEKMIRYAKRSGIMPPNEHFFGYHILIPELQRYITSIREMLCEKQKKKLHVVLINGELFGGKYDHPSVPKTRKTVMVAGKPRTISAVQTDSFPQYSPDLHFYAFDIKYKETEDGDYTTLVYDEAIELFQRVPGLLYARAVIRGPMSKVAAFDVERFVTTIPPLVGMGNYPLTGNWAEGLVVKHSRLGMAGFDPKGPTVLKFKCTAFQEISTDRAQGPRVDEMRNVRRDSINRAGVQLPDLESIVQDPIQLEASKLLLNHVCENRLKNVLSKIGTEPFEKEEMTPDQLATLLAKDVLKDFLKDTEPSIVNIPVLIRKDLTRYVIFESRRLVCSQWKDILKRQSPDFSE

The target of data set [3] is T3, A1 (full length, mature);L2 A1BD (Trypanosoma brucei;Trypanosoma brucei, UniProt Q95W15;P86925 196-762;308-416, |).
T3 sequence 1: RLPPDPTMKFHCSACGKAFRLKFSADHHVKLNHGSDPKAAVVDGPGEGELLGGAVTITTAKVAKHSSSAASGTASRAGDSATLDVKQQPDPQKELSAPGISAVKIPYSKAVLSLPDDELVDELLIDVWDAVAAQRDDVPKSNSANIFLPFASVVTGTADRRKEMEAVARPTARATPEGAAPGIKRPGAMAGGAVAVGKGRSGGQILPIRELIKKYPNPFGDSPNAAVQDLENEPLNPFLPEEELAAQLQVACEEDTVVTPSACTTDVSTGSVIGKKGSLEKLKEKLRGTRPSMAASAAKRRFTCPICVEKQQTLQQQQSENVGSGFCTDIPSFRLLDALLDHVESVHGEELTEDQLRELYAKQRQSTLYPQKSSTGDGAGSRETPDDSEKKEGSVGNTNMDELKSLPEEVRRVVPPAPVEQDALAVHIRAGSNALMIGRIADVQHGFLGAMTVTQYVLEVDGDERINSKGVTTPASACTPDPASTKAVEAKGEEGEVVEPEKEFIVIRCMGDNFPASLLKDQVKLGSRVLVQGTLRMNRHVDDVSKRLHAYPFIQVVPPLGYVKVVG
T3 sequence 2: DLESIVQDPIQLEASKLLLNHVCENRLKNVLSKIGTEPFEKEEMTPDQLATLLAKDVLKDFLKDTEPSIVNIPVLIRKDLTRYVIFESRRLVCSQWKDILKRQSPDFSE

Data set [4] has as its target T4, A1 R734E;L2 RNA-editing ligase (full length, mature) (Trypanosoma brucei;Trypanosoma brucei, UniProt Q95W15;P86925 196-762;21-416, R734E|).
T4 sequence 1: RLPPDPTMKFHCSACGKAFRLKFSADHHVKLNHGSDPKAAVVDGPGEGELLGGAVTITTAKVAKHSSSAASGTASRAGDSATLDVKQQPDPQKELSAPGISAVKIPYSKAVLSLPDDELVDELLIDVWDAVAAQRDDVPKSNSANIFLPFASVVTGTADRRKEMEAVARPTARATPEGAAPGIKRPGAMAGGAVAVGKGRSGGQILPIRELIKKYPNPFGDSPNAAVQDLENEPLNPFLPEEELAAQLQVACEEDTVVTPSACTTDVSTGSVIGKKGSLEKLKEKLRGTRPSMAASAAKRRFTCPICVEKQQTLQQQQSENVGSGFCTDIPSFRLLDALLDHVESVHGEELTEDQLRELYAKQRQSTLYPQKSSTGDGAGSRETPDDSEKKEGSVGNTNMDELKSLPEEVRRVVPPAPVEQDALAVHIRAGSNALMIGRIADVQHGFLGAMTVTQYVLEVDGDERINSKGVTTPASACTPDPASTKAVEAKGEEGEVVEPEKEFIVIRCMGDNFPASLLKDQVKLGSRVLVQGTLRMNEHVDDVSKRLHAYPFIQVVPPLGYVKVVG
T4 sequence 2: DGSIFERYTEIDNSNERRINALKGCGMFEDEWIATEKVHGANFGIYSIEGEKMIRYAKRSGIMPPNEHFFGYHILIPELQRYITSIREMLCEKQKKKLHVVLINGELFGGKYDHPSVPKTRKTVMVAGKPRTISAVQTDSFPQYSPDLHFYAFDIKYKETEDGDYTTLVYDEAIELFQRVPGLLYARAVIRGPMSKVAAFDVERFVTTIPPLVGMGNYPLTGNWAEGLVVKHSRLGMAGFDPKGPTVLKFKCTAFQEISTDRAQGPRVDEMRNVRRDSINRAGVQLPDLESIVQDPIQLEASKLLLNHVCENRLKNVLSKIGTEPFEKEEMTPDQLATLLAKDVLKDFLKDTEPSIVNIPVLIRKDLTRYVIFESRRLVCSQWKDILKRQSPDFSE

Data set [5] addresses T5, A1 R731E;L2 RNA-editing ligase (full length, mature) (Trypanosoma brucei;Trypanosoma brucei, UniProt Q95W15;P86925 196-762;21-416, R731E|).
T5 sequence 1: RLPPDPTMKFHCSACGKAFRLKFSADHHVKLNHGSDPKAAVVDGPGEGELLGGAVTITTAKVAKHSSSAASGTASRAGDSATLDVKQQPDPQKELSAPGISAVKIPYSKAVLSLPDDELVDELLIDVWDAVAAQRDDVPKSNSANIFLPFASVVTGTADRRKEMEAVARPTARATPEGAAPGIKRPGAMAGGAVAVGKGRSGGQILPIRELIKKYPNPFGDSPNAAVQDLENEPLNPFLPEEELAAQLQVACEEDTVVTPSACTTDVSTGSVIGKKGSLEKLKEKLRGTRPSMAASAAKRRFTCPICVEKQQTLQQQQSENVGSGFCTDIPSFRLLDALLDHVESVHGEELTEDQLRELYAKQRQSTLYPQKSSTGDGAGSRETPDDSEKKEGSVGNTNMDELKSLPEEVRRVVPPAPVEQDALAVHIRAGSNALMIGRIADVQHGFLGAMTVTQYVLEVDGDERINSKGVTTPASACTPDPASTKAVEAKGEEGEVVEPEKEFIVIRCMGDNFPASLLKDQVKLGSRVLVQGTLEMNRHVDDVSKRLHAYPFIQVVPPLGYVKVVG
T5 sequence 2: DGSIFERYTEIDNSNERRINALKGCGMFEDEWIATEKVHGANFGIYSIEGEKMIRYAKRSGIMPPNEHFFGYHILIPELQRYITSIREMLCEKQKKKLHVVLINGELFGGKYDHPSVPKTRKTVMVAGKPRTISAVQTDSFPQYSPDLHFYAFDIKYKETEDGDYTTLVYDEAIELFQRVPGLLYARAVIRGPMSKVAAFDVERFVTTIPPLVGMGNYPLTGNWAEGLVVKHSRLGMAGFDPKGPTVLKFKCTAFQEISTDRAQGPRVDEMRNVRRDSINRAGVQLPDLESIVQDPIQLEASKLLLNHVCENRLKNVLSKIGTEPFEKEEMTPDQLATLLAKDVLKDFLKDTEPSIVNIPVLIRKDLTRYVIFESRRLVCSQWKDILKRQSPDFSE

Data set [6] concerns the target T6, A1 R703E;L2 RNA-editing ligase (full length, mature) (Trypanosoma brucei;Trypanosoma brucei, UniProt Q95W15;P86925 196-762;21-416, R703E|).
T6 sequence 1: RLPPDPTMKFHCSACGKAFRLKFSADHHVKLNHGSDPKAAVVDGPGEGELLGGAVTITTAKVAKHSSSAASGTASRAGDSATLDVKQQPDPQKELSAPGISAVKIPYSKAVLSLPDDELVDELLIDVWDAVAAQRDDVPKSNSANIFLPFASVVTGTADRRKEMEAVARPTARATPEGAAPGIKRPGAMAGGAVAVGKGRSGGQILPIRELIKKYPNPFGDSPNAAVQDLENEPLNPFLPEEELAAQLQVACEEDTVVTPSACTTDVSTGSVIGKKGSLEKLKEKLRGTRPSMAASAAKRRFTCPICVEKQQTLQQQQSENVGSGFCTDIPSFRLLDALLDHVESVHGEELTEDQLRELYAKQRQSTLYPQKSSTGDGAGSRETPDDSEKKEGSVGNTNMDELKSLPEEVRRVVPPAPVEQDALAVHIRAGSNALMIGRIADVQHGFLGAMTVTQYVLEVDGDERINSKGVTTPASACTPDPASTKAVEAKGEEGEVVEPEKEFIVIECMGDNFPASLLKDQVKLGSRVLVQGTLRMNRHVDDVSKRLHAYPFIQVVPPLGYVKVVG
T6 sequence 2: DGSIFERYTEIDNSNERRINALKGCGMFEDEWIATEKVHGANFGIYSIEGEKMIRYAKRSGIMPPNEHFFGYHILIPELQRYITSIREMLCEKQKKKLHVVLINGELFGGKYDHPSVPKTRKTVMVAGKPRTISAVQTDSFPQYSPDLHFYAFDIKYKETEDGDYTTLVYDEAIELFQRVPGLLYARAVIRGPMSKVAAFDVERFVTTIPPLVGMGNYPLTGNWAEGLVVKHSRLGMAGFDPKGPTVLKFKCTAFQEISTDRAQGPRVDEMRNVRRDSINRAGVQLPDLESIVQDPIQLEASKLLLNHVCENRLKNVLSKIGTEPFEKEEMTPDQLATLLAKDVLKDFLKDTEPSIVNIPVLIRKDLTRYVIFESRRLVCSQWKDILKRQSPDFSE

The target of data set [7] is T7, A1Δ (L23 deletion);L2 RNA-editing ligase (full length, mature) (Trypanosoma brucei;Trypanosoma brucei, UniProt Q95W15;P86925 196-657+=GASG+696-762;21-416, internal_change|).
T7 sequence 1: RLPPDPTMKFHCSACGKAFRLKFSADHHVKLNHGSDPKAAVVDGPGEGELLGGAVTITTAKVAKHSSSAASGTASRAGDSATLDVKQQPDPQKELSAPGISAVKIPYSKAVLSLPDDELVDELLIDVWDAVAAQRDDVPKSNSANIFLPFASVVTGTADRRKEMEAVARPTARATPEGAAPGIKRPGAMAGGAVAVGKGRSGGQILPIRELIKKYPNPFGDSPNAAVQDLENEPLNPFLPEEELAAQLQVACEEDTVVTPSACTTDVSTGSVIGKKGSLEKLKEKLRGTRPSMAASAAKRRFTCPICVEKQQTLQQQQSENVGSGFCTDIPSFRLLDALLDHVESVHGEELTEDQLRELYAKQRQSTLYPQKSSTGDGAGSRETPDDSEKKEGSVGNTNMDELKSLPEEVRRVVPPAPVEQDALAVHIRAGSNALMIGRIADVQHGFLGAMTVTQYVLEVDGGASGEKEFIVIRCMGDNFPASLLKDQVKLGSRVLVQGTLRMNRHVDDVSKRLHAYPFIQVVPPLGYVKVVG
T7 sequence 2: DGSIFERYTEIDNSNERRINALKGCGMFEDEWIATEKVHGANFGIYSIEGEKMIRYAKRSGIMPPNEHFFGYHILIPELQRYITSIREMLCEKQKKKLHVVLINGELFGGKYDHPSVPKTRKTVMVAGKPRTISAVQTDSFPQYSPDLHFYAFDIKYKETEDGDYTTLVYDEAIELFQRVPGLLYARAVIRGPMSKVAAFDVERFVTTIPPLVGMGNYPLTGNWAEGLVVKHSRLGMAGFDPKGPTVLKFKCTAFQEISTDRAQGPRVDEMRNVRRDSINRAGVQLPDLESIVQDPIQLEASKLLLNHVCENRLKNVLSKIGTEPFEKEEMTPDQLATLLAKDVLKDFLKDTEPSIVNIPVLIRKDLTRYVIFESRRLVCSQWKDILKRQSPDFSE

A further data set deals with T8, L2 NTase domain (Trypanosoma brucei, UniProt P86925 21-285).
T8 sequence: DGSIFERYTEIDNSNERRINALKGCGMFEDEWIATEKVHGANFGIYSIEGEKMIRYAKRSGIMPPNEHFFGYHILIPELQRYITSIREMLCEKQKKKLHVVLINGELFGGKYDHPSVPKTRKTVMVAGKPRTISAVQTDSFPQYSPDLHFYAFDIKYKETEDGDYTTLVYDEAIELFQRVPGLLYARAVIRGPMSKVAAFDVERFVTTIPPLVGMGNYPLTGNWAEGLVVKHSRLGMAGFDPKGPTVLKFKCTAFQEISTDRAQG

B1: 26-mer nicked dsRNA (dsRNA)
RNA 1: AUGAGACGUAGGUU
RNA 2: UUAUCGGAGUUC
RNA 3: GAACUCCGAUAAAACCUACGUCUCAU
Take B1: the binding result in data set [1] is “binds”; in data set [2] it was “no binding”; in data set [3], “no binding”; in data set [4] it was “no binding”; in data set [5] it was “no binding”; in data set [6], “no binding”. Further, the results for the binding result (in data set [7]; with L2 NTase domain) were “binds” and “no binding”, respectively.
